Drawing on article PMC8111768, this text covers Kd for 1 substance.

The target in assay [1] is VIC16 REFORMab EFTEA (G236A/S267E/H268F/S324T/I332E) (mouse | human). Briefly: SPR.
Assay [2] addresses VIC16 REFORMab SDIEALGA (G236A/S239D/A330L/I332E) (mouse | human). In words: SPR.

Sequence of recombinant human FcγR3B (O75015 17-200): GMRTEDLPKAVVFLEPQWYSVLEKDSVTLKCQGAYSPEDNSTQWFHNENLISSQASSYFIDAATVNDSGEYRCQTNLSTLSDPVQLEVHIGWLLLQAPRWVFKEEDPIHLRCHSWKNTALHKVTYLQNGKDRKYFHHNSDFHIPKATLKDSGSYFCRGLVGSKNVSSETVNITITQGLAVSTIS

“recombinant human FcγR3B (from UniProt O75015 17-200) (receptor)”: the figures for the Kd in assay [1] and in assay [2] were 475 µM and 3.2 µM, respectively.
